According to PMC7179994 (2019):

Target: VLDL receptor (Homo sapiens, UniProt P98155)
Test: SPR

B1: NDSK-II fragment of fibrin NDSK-II (central region) (protein)
chain 1: ADSGEGDFLAEGGGVRGPRVVERHQSACKDSDWPFCSDEDWNYKCPSGCRMKGLIDEVNQDFTNRINKLKNSLFEYQKNNKDSHSLTTNIMEILRGDFSSANNRDNTYNRVSEDLRSRIEVLKRKVIEKVQHIQLLQKNVRAQLVDMKRLEVDIDIKIRSCRGSCSRALAREVDLKDYEDQQKQLEQVIAKDLLPSRDRQHLPLIKMKPVPDLVPGNFKSQLQKVPPEWKALTDMPQMRMELERPGGNEITRGGSTSYGTGSETESPRNPSSAGSWNSGSSGPGSTGNRNPGSSGTGGTATWKPGSSGPGSTGSWNSGSSGTGSTGNQNPGSPRPGSTGTWNPGSSERGSAGHWTSESSVSGSTGQWHSESGSFRPDSPGSGNARPNNPDWGTFEEVSGNVSPGTRREYHTEKLVTSKGDKELRTGKEKVTSGSTTTTRRSCSKTVTKTVIGPDGHKEVTKEVVTSEDGSDCPEAMDLGTLSGIGTLDGFRHRHPDEAAFFDTASTGKTFPGFFSPMLGEFVSETESRGSESGIFTNTKESSSHHPGIAEFPSRGKSSSYSKQFTSSTSYNRGDSTFESKSYKMADEAGSEADHEGTHSTKRGHAKSRPVRDCDDVLQTHPSGTQSGIFNIKLPGSSKIFSVYCDQETSLGGWLLIQQRMDGSLNFNRTWQDYKRGFGSLNDEGEGEFWLGNDYLHLLTQRGSVLRVELEDWAGNEAYAEYHFRVGSEAEGYALQVSSYEGTAGDALIEGSVEEGAEYTSHNNMQFSTFDRDADQWEENCAEVYGGGWWYNNCQAANLNGIYYPGGSYDPRNNSPYEIENGVVWVSFRGADYSLRAVRMKIRPLVTQ
chain 2: QGVNDNEEGFFSARGHRPLDKKREEAPSLRPAPPPISGGGYRARPAKAAATQKKVERKAPDAGGCLHADPDLGVLCPTGCQLQEALLQQERPIRNSVDELNNNVEAVSQTSSSSFQYMYLLKDLWQKRQKQVKDNENVVNEYSSELEKHQLYIDETVNSNIPTNLRVLRSILENLRSKIQKLESDVSAQMEYCRTPCTVSCNIPVVSGKECEEIIRKGGETSEMYLIQPDSSVKPYRVYCDMNTENGGWTVIQNRQDGSVDFGRKWDPYKQGFGNVATNTDGKNYCGLPGEYWLGNDKISQLTRMGPTELLIEMEDWKGDKVKAHYGGFTVQNEANKYQISVNKYRGTAGNALMDGASQLMGENRTMTIHNGMFFSTYDRDNDGWLTSDPRKQCSKEDGGGWWYNRCHAANPNGRYYWGGQYTWDMAKHGTDDGVVWMNWKGSWYSMRKMSMKIRPFFPQQ
chain 3: YVATRDNCCILDERFGSYCPTTCGIADFLSTYQTKVDKDLQSLEDILHQVENKTSEVKQLIKAIQLTYNPDESSKPNMIDAATLKSRKMLEEIMKYEASILTHDSSIRYLQEIYNSNNQKIVNLKEKVAQLEAQCQEPCKDTVQIHDITGKDCQDIANKGAKQSGLYFIKPLKANQQFLVYCEIDGSGNGWTVFQKRLDGSVDFKKNWIQYKEGFGHLSPTGTTEFWLGNEKIHLISTQSAIPYALRVELEDWNGRTSTADYAMFKVGPEADKYRLTYAYFAGGDAGDAFDGFDFGDDPSDKFFTSHNGMQFSTWDNDNDKFEGNCAEQDGSGWWMNKCHAGHLNGVYYQGGTYSKASTPNGYDNGIIWATWKTRWYSMKKTTMKIIPFNRLTIGEGQQHHLGGAKQVRPEHPAETEYDSLYPEDDL
For B1, the Kd was 9.6 nM.
